Data: the supplement of paper PMC5998384

What was measured:
HeLa Kyoto [1] = test: solubility in G1/S (NP-40 vs SDS abundance) (log2 ratio); higher = more soluble; conditions: cell cycle stage: G1/S
HeLa Kyoto [2] = test: melting temperature (median over replicates), in situ; higher = more thermally stable
HeLa Kyoto [3] = test: solubility change mitosis vs G1/S (difference of NP-40 vs SDS log2 ratios) (log2 ratio difference); higher = more soluble in mitosis
HeLa Kyoto [4] = test: thermal stability score vs G1/S (z-score of summed log2 fold changes over temperatures); higher = more thermally stable than in G1/S
[5] = cell cycle stage: early G1 (4.5 h after nocodazole release)
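For melting temperature (median over replicates), in situ in this document: HeLa Kyoto cells synchronized by double thymidine or nocodazole block, proteins quantified by TMT10plex mass spectrometry, three independent biological replicates.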
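For solubility change mitosis vs G1/S (difference of NP-40 vs SDS log2 ratios) in this document: synchronized HeLa Kyoto cells (double thymidine block for G1/S, nocodazole release for mitosis), protein amounts in NP-40 versus SDS lysates quantified by mass spectrometry, three biological replicates.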
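For solubility in G1/S (NP-40 vs SDS abundance) in this document: HeLa Kyoto cells arrested at G1/S by double thymidine block, proteins quantified by TMT10plex mass spectrometry in mild NP-40 versus SDS extracts, three biological replicates.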
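For thermal stability score vs G1/S (z-score of summed log2 fold changes over temperatures) in this document: synchronized HeLa Kyoto cells, proteins quantified by TMT10plex mass spectrometry, three biological replicates, mitosis taken 0.5 h after nocodazole release, G1/S directly after double thymidine block.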

Sequence	solubility in G1/S (log2) (HeLa Kyoto [1])	melting temperature (HeLa Kyoto [2]; cell cycle stage: G1/S) [°C]	melting temperature (HeLa Kyoto [2]; cell cycle stage: mitosis) [°C]	solubility change mitosis (log2) (HeLa Kyoto [3])	thermal stability score (HeLa Kyoto [4]; [5])	thermal stability score (HeLa Kyoto [4]; cell cycle stage: mitosis)
MPKLQGFEFWSRTLRGARHVVAPMVDQSELAWRLLSRRHGAQLCYTPMLHAQVFVRDANYRKENLYCEVCPEDRPLIVQFCANDPEVFVQAALLAQDYCDAIDLNLGCPQMIAKRGHYGAFLQDEWDLLQRMILLAHEKLSVPVTCKIRVFPEIDKTVRYAQMLEKAGCQLLTVHGRTKEQKGPLSGAASWEHIKAVRKAVAIPVFANGNIQCLQDVERCLRDTGVQGVMSAEGNLHNPALFEGRSPAVWELAEEYLDIVREHPCPLSYVRAHLFKLWHHTLQVHQELREELAKVKTLEGIAAVSQELKLRCQEEISRQEGAKPTGDLPFHWICQPYIRPGPREGSKEKAGARSKRALEEEEGGTEVLSKNKQKKQLRNPHKTFDPSLKPKYAKCDQCGNPKGNRCVFSLCRGCCKKRASKETADCPGHGLLFKTKLEKSLAWKEAQPELQEPQPAAPGTPGGFSEVMGSALA [DUS1L]	0.086	47.3	48.9	-0.169	0.994	1.71
MPLAQLKEPWPLMELVPLDPENGQTSGEEAGLQPSKDEGVLKEISITHHVKAGSEKADPSHFELLKVLGQGSFGKVFLVRKVTRPDSGHLYAMKVLKKATLKVRDRVRTKMERDILADVNHPFVVKLHYAFQTEGKLYLILDFLRGGDLFTRLSKEVMFTEEDVKFYLAELALGLDHLHSLGIIYRDLKPENILLDEEGHIKLTDFGLSKEAIDHEKKAYSFCGTVEYMAPEVVNRQGHSHSADWWSYGVLMFEMLTGSLPFQGKDRKETMTLILKAKLGMPQFLSTEAQSLLRALFKRNPANRLGSGPDGAEEIKRHVFYSTIDWNKLYRREIKPPFKPAVAQPDDTFYFDTEFTSRTPKDSPGIPPSAGAHQLFRGFSFVATGLMEDDGKPRAPQAPLHSVVQQLHGKNLVFSDGYVVKETIGVGSYSECKRCVHKATNMEYAVKVIDKSKRDPSEEIEILLRYGQHPNIITLKDVYDDGKHVYLVTELMRGGELLDKILRQKFFSEREASFVLHTIGKTVEYLHSQGVVHRDLKPSNILYVDESGNPECLRICDFGFAKQLRAENGLLMTPCYTANFVAPEVLKRQGYDEGCDIWSLGILLYTMLAGYTPFANGPSDTPEEILTRIGSGKFTLSGGNWNTVSETAKDLVSKMLHVDPHQRLTAKQVLQHPWVTQKDKLPQSQLSHQDLQLVKGAMAATYSALNSSKPTPQLKPIESSILAQRRVRKLPSTTL [RPS6KA1]	0.0398	49.6	50.2	-0.118	0.39	1.42
MPLGLGRRKKAPPLVENEEAEPGRGGLGVGEPGPLGGGGSGGPQMGLPPPPPALRPRLVFHTQLAHGSPTGRIEGFTNVKELYGKIAEAFRLPTAEVMFCTLNTHKVDMDKLLGGQIGLEDFIFAHVKGQRKEVEVFKSEDALGLTITDNGAGYAFIKRIKEGSVIDHIHLISVGDMIEAINGQSLLGCRHYEVARLLKELPRGRTFTLKLTEPRKAFDMISQRSAGGRPGSGPQLGTGRGTLRLRSRGPATVEDLPSAFEEKAIEKVDDLLESYMGIRDTELAATMVELGKDKRNPDELAEALDERLGDFAFPDEFVFDVWGAIGDAKVGRY [GIPC1]	0.314	49.5	48.7	-0.156	-0.363	1.49
MPLHQLGDKPLTFPSPNSAMENGLDHTPPSRRASPGTPLSPGSLRSAAHSPLDTSKQPLCQLWAEKHGARGTHEVRYVSAGQSVACGWWAFAPPCLQVLNTPKGILFFLCAAAFLQGMTVNGFINTVITSLERRYDLHSYQSGLIASSYDIAACLCLTFVSYFGGSGHKPRWLGWGVLLMGTGSLVFALPHFTAGRYEVELDAGVRTCPANPGAVCADSTSGLSRYQLVFMLGQFLHGVGATPLYTLGVTYLDENVKSSCSPVYIAIFYTAAILGPAAGYLIGGALLNIYTEMGRRTELTTESPLWVGAWWVGFLGSGAAAFFTAVPILGYPRQLPGSQRYAVMRAAEMHQLKDSSRGEASNPDFGKTIRDLPLSIWLLLKNPTFILLCLAGATEATLITGMSTFSPKFLESQFSLSASEAATLFGYLVVPAGGGGTFLGGFFVNKLRLRGSAVIKFCLFCTVVSLLGILVFSLHCPSVPMAGVTASYGGSLLPEGHLNLTAPCNAACSCQPEHYSPVCGSDGLMYFSLCHAGCPAATETNVDGQKVYRDCSCIPQNLSSGFGHATAGKCTSTCQRKPLLLVFIFVVIFFTFLSSIPALTATLRCVRDPQRSFALGIQWIVVRILGGIPGPIAFGWVIDKACLLWQDQCGQQGSCLVYQNSAMSRYILIMGLLYKVLGVLFFAIACFLYKPLSESSDGLETCLPSQSSAPDSATDSQLQSSV [SLCO4A1]	0.576	55.2	56.9	-0.143	-0.978	-0.221
MPLKWKTSSPAIWKFPVPVLKTSRSTPLSPAYISLVEEEDQHMKLSLGGSEMGLSSHLQSSKAGPTRIFTSNTHSSVVLQGFDQLRLEGLLCDVTLMPGDTDDAFPVHRVMMASASDYFKAMFTGGMKEQDLMCIKLHGVSKVGLRKIIDFIYTAKLSLNMDNLQDTLEAASFLQILPVLDFCKVFLISGVTLDNCVEVGRIANTYNLTEVDKYVNSFVLKNFPALLSTGEFLKLPFERLAFVLSSNSLKHCTELELFKATCRWLRLEEPRMDFAAKLMKNIRFPLMTPQELINYVQTVDFMRTDNTCVNLLLEASNYQMMPYMQPVMQSDRTAIRSDTTHLVTLGGVLRQQLVVSKELRMYDEKAHEWKSLAPMDAPRYQHGIAVIGNFLYVVGGQSNYDTKGKTAVDTVFRFDPRYNKWMQVASLNEKRTFFHLSALKGYLYAVGGRNAAGELPTVECYNPRTNEWTYVAKMSEPHYGHAGTVYGGVMYISGGITHDTFQKELMCFDPDTDKWIQKAPMTTVRGLHCMCTVGERLYVIGGNHFRGTSDYDDVLSCEYYSPILDQWTPIAAMLRGQSDVGVAVFENKIYVVGGYSWNNRCMVEIVQKYDPDKDEWHKVFDLPESLGGIRACTLTVFPPEETTPSPSRESPLSAP [KLHL13]	-0.13	52.2	50.4	-0.128	-0.01	0.108
